1 substance from paper PMC12450071 can be followed below.

The target of the assay is JUNV GP1 (receptor-binding domain), subunit within the GPC on PV membranes (Junin virus strain MC2). Description: cryo-EM structure.

Consider “JUNV GP1 (receptor-binding domain), subunit within the GPC on PV membranes (domain or fragment)”, for which the stoichiometry N (usually a count of units in the complex or per binding partner) amounted to 3.
